Data from patent publication US20120021972A1 (CADILA HEALTHCARE, published 2012).
Starred links: 1 amine or outer side, 2 acyl side, 3 side chain; linkers in the order of their positions; H or OH if unused. Non-standard residues stand in square brackets, D forms with d. No end group written: not given here. *: point of attachment. NMe2F‑APPA = N-methyl-2-amino-5-(2-fluorophenyl)pentanoic acid, CN([C@@H](CCCc1ccccc1F)C(=O)[*:2])[*:1]; ACPP = 2-amino-5-(3-chlorophenyl)pentanoic acid, O=C([C@H](CCCc1cccc(Cl)c1)N[*:1])[*:2]; 2Cl,4OMe‑APPA = 2-amino-5-(2-chloro-4-methoxyphenyl)pentanoic acid; Bip(2'-Et-4'-OMe) = CCc1cc(OC)ccc1-c1ccc(C[C@H](N)C(=O)O)cc1; 2F‑APPA = 2-amino-5-(2-fluorophenyl)pentanoic acid; αMePhe(2-F) = C[C@](N)(Cc1ccccc1F)C(=O)O; NMeBip(OMe) = N-methylated Bip(OMe); hhPhe = N[C@@H](CCCc1ccccc1)C(=O)O; NMeD = CN[C@@H](CC(=O)O)C(=O)O; aThr = C[C@H](O)[C@H](N)C(=O)O; αMeP = C[C@@]1(C(=O)O)CCCN1; NMeAPPA = not defined here; CNB = not defined here; Aib = CC(C)(N)C(=O)O; Moc = COC(=O)*

Key:
[1] = target: human GLP-1 receptor (human, UniProt P43220 24-463); test: cell-based or functional assay
Sequence of human GLP-1 receptor (P43220 24-463): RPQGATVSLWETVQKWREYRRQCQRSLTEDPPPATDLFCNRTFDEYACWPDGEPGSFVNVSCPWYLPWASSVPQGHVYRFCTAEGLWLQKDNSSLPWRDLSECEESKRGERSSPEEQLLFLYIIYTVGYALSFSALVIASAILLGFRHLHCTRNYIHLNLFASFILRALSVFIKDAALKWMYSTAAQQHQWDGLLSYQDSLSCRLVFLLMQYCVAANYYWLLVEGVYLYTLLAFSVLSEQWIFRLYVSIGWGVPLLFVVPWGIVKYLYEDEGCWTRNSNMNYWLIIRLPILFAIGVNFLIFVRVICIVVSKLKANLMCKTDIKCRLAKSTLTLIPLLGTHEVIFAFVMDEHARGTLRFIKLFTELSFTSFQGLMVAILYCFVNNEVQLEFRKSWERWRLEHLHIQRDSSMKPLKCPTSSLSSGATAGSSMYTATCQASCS

[2] = target: human glucagon receptor (human, UniProt P47871 26-477); test: cell-based or functional assay

cAMP release, % activity, 1 nM [1] [%] | cAMP release, % activity, 10 nM [1] [%] | cAMP release, % activity, 100 nM [1] [%] | cAMP release, % activity, 1 µM [1] [%] | cAMP release, % activity, 10 µM [1] [%] | inhibition of cAMP production, 1 nM [2] [pmol/ml/µg prt] | inhibition of cAMP production, 10 nM [2] [pmol/ml/µg prt] | inhibition of cAMP production, 100 nM [2] [pmol/ml/µg prt] | inhibition of cAMP production, 1 µM [2] [pmol/ml/µg prt] | inhibition of cAMP production, 10 µM [2] [pmol/ml/µg prt] | Binder
99 | 99 | 99 | 99 | 99 | 3 | 0 | 0 | 0 | 0 | H[αMeP]QGTFTSD[Bip(2'-Et-4'-OMe)][ACPP] [Seq. ID. No. 11: H-(α-Me-Pro)-QGTFTSD-Bip(OMe)-(ACPP)]
38 | 77 | 85 | 94 | 97 | 4 | 2 | 0 | 0 | 0 | H[Aib][CNB]GTFTSD[Bip(2'-Et-4'-OMe)][2Cl,4OMe‑APPA] (reading uncertain) [Seq. ID. No. 84: H-Aib-(CNB)-GTFTSD-Bip(OMe)-(2Cl,4OMe-APPA)]
38 | 77 | 85 | 94 | 97 | 18 | 16 | 12 | 8 | 6 | H[Aib][CNB]G[aThr][αMePhe(2-F)]TSD[Bip(2'-Et-4'-OMe)][hhPhe] (reading uncertain) [Seq. ID. No. 110: H-Aib-(CNB)-G-T(allo)-(α-Me-2F-Phe)-TSD-Bip(OMe)-(APPA)]
39 | 81 | 89 | 96 | 99 | 6 | 5 | 2 | 0 | 0 | H[Aib][CNB]G[aThr][αMePhe(2-F)]TSD[Bip(2'-Et-4'-OMe)][2F‑APPA] (reading uncertain) [Seq. ID. No. 112: H-Aib-(CNB)-G-T(allo)-(α-Me-2F-Phe)-TSD-Bip(OMe)-(2F-APPA)]
82 | 87 | 92 | 99 | 99 | 4 | 2 | 0 | 0 | 0 | H[Aib][CNB]G[aThr][αMePhe(2-F)][aThr]SD[Bip(2'-Et-4'-OMe)][hhPhe] (reading uncertain) [Seq. ID. No. 114: H-Aib-(CNB)-G-T(allo)-(α-Me-2F-Phe)-T(allo)-SD-Bip(OMe)-(APPA)]
55 | 88 | 92 | 99 | 99 | 2 | 0 | 0 | 0 | 0 | H[Aib][CNB]G[aThr][αMePhe(2-F)][aThr]SD[Bip(2'-Et-4'-OMe)][2F‑APPA] (reading uncertain) [Seq. ID. No. 116: H-Aib-(CNB)-G-T(allo)-(α-Me-2F-Phe)-T(allo)-SD-Bip(OMe)-(2F-APPA)]
99 | 99 | 99 | 99 | 99 | 0 | 0 | 0 | 0 | 0 | H[Aib][CNB]GT[αMePhe(2-F)][aThr]SD[Bip(2'-Et-4'-OMe)][2F‑APPA] (reading uncertain) [Seq. ID. No. 120: H-Aib-(CNB)-GT-(α-Me-2F-Phe)-T(allo)-SD-Bip(OMe)-(2F-APPA)]
39 | 81 | 89 | 96 | 99 | 5 | 3 | 1 | 0 | 0 | H[Aib][CNB]G[aThr][αMePhe(2-F)][aThr]SD[Bip(2'-Et-4'-OMe)][NMeAPPA] (reading uncertain) [Seq. ID. No. 130: H-Aib-(CNB)-G-T(allo)-(α-Me-2F-Phe)-T(allo)-SD-Bip(OMe)-((NMe)(APPA))]
55 | 89 | 93 | 99 | 99 | 5 | 3 | 0 | 0 | 0 | H[Aib][CNB]G[aThr][αMePhe(2-F)][aThr]SD[NMeBip(OMe)][NMe2F‑APPA] (reading uncertain) [Seq. ID. No. 144: H-Aib-(CNB)-G-T(allo)-(α-Me-2F-Phe)-T(allo)-SD-((NMe)Bip(OMe))-((NMe)(2F-APPA))]
60 | 92 | 98 | 99 | 99 | 9 | 6 | 5 | 3 | 0 | H[Aib][CNB]G[aThr][αMePhe(2-F)][aThr]S[NMeD][NMeBip(OMe)][NMeAPPA] (reading uncertain) [Seq. ID. No. 154: H-Aib-(CNB)-G-T(allo)-(α-Me-2F-Phe)-T(allo)-S-(NMe)D-((NMe)Bip(OMe))-((NMe)(APPA))]
86 | 99 | 99 | 99 | 99 | 5 | 2 | 0 | 0 | 0 | H[Aib][CNB]G[aThr][αMePhe(2-F)][aThr]S[NMeD][NMeBip(OMe)][NMe2F‑APPA] (reading uncertain)
96 | 99 | 99 | 99 | 99 | 19 | 17 | 15 | 14 | 12 | H[Aib][CNB]G[aThr][αMePhe(2-F)][aThr]SD[Bip(2'-Et-4'-OMe)][hhPhe] (reading uncertain; also: thioamide bond between residues 10 and 11) [Seq. ID. No. 166: H-Aib-(CNB)-G-T(allo)-(α-Me-2F-Phe)-T(allo)-SD-Bip(OMe)-(C═S)-(APPA)]
96 | 99 | 99 | 99 | 99 | 21 | 19 | 18 | 18 | 16 | H[Aib][CNB]G[aThr][αMePhe(2-F)][aThr]SD[Bip(2'-Et-4'-OMe)][2F‑APPA] (reading uncertain; also: thioamide bond between residues 10 and 11) [Seq. ID. No. 168: H-Aib-(CNB)-G-T(allo)-(α-Me-2F-Phe)-T(allo)-SD-Bip(OMe)-(C═S)-(2F-APPA)]
39 | 80 | 86 | 95 | 98 | 0 | 0 | 0 | 0 | 0 | H[Aib][CNB]G[aThr][αMePhe(2-F)][aThr]SD[Bip(2'-Et-4'-OMe)][hhPhe] (reading uncertain; also: thioamide bonds between residues 9-10 and 10-11) [Seq. ID. No. 178: H-Aib-(CNB)-G-T(allo)-(α-Me-2F-Phe)-T(allo)-SD-(C═S)-Bip(OMe)-(C═S)-(APPA)]
99 | 99 | 99 | 99 | 99 | 0 | 0 | 0 | 0 | 0 | H[Aib]QGTFTSD[Bip(2'-Et-4'-OMe)][ACPP] [Seq. ID. No. 19: H-Aib-QGTFTSD-Bip(OMe)-(ACPP)]
38 | 77 | 85 | 94 | 97 | 18 | 16 | 12 | 8 | 6 | Moc-H[Aib]QGT[αMePhe(2-F)]TSD[Bip(2'-Et-4'-OMe)][hhPhe] (also: reduced (CH2) bonds between 9-10 and 10-11) [Seq. ID. No. 194: CH3OCO-H-Aib-QGT-(α-Me-2F-Phe)-TSD-(CH2)-Bip(OMe)-(CH2)-(APPA)]
55 | 88 | 92 | 99 | 99 | 10 | 8 | 6 | 4 | 1 | Moc-H[Aib]QG[aThr][αMePhe(2-F)][aThr]SD[Bip(2'-Et-4'-OMe)][2F‑APPA] (also: reduced (CH2) bonds between 9-10 and 10-11) [Seq. ID. No. 200: CH3OCO-H-Aib-QG-T(allo)-(α-Me-2F-Phe)-T(allo)-SD-(CH2)-Bip(OMe)-(CH2)-(2F-APPA)]
